Assay [1] concerns the target HLA-C*12:03. In words: IEDB peptide-MHC binding, purified MHC/direct/fluorescence; filed as Kd, often an IC50 or EC50 that approximates it; ≥ and ≤ were set here for values at or beyond the usual limits of such assays.
Assay [2] has as its target HLA-C*03:03. The description is as above. The note with it: source organism: Canarypox virus.
Assay [3] concerns the target HLA-C*15:02. The description is as above. The note with it: source organism: Canarypox virus.
For assay [4], the target named is HLA-A*02:11. The assay can be described thus: IEDB peptide-MHC binding, purified MHC/competitive/fluorescence; filed as Kd, often an IC50 or EC50 that approximates it; ≥ and ≤ were set here for values at or beyond the usual limits of such assays. The note with it: source organism: Canarypox virus.
Assay [5] concerns the target HLA-A*02:01. Described as above.
Assay [6] addresses HLA-A*26:01. The assay can be described thus: IEDB peptide-MHC binding, purified MHC/direct/fluorescence; filed as Kd, often an IC50 or EC50 that approximates it; ≥ and ≤ were set here for values at or beyond the usual limits of such assays. The note with it: source organism: Orthohantavirus dobravaense.
The target of assay [7] is HLA-A*26:02. The description is as above.
For assay [8], the target named is HLA-A*02:01. The assay can be described thus: IEDB peptide-MHC binding, purified MHC/competitive/radioactivity; ≥ and ≤ were set here for values at or beyond the usual limits of such assays.
The target of assay [9] is HLA-A*01:01. In words: IEDB peptide-MHC binding, purified MHC/competitive/fluorescence; ≥ and ≤ were set here for values at or beyond the usual limits of such assays.
For assay [10], the target named is HLA-A*02:01. The description is as above.
Assay [11] concerns the target HLA-A*03:01. Described as above. The note with it: source organism: Variola virus.
In assay [12] the target is HLA-A*11:01. Described as above.
For assay [13], the target named is HLA-B*15:01. The description is as above.
The target in assay [14] is HLA-A*32:01. In words: IEDB peptide-MHC binding, purified MHC/competitive/radioactivity; filed as Kd, often an IC50 or EC50 that approximates it; ≥ and ≤ were set here for values at or beyond the usual limits of such assays. The note with it: source organism: Vaccinia virus WR.
Assay [15] addresses HLA-A*30:01. Described as above. The note with it: source organism: Vaccinia virus WR.
Assay [16] concerns the target HLA-B*15:03. The description is as above. The note with it: source organism: Vaccinia virus WR.
Assay [17] deals with HLA-B*08:01. Described as above. The note with it: source organism: Vaccinia virus WR.
The target of assay [18] is HLA-B*15:01. The assay is described as above. The note with it: source organism: Vaccinia virus WR.
Assay [19] addresses HLA-B*40:01. The assay can be described thus: IEDB peptide-MHC binding, purified MHC/direct/fluorescence; filed as Kd, often an IC50 or EC50 that approximates it; ≥ and ≤ were set here for values at or beyond the usual limits of such assays. The note with it: source organism: Camelpox virus CMS.
Assay [20] concerns the target HLA-B*39:01. Described as above. The note with it: source organism: Camelpox virus CMS.
Assay [21] concerns the target HLA-B*58:01. Described as above.
The target of assay [22] is HLA-B*27:05. Described as above. The note with it: source organism: Camelpox virus CMS.
Assay [23] deals with HLA-B*07:02. Described as above. The note with it: source organism: Camelpox virus CMS.
Assay [24] addresses HLA-B*46:01. Described as above. The note with it: source organism: Camelpox virus CMS.
The target of assay [25] is HLA-A*69:01. Described as above. The note with it: source organism: Camelpox virus CMS.
For assay [26], the target named is HLA-B*18:01. The assay is described as above. The note with it: source organism: Camelpox virus CMS.
The target of assay [27] is HLA-B*15:01. Described as above. The note with it: source organism: Camelpox virus CMS.
Assay [28] deals with HLA-B*48:01. The assay is described as above. The note with it: source organism: Camelpox virus CMS.
In assay [29] the target is HLA-A*68:02. The assay is described as above. The note with it: source organism: Camelpox virus CMS.
For assay [30], the target named is HLA-A*02:01. The assay is described as above. The note with it: source organism: Camelpox virus CMS.
Assay [31] addresses HLA-A*01:01. The assay can be described thus: IEDB peptide-MHC binding, purified MHC/competitive/fluorescence; filed as Kd, often an IC50 or EC50 that approximates it; ≥ and ≤ were set here for values at or beyond the usual limits of such assays. The note with it: source organism: Variola virus.
Assay [32] addresses HLA-B*15:17. The assay is described as above. The note with it: source organism: Variola virus.
For assay [33], the target named is HLA-A*26:02. The assay is described as above. The note with it: source organism: Variola virus.
Assay [34] addresses HLA-B*57:01. The assay is described as above. The note with it: source organism: Variola virus.
Assay [35] concerns the target HLA-A*02:06. The assay can be described thus: IEDB peptide-MHC binding, purified MHC/competitive/radioactivity; filed as Kd, often an IC50 or EC50 that approximates it; ≥ and ≤ were set here for values at or beyond the usual limits of such assays. The note with it: source organism: Trypanosoma cruzi.
Assay [36] addresses HLA-A*02:02. The assay is described as above. The note with it: source organism: Trypanosoma cruzi.
For assay [37], the target named is HLA-A*68:02. The assay is described as above. The note with it: source organism: Trypanosoma cruzi.
In assay [38] the target is HLA-A*02:03. The description is as above. The note with it: source organism: Trypanosoma cruzi.
Assay [39] deals with HLA-B*57:01. In words: IEDB peptide-MHC binding, purified MHC/direct/fluorescence; filed as Kd, often an IC50 or EC50 that approximates it; ≥ and ≤ were set here for values at or beyond the usual limits of such assays. The note with it: source organism: Mycobacterium tuberculosis variant bovis.
The target in assay [40] is HLA-B*46:01. In words: IEDB peptide-MHC binding, purified MHC/competitive/fluorescence; filed as Kd, often an IC50 or EC50 that approximates it; ≥ and ≤ were set here for values at or beyond the usual limits of such assays. The note with it: source organism: Mycobacterium tuberculosis variant bovis BCG str. Pasteur 1173P2.
[41] abbreviates: source organism: Canarypox virus.
The mark [42] stands for this setting: source organism: Zaire ebolavirus.
Setting [43] is: source organism: Vaccinia virus WR.

The Kd is the free concentration of one partner at which half of the binding sites on the other are occupied at equilibrium, for simple one-to-one binding. The term IC50 denotes the concentration at which inhibition is half-maximal.

HAATNFREI gave a Kd in assay [1] (source organism: Angomonas deanei) of 25 nM.
For YIIPCILIL, the Kd in assay [1] (setting [41]) is 327 nM; in [2], 229 nM; in assay [3], at least 20000 nM; in assay [4] it was 240 nM; in [5] (setting [41]), 59.4 nM.
As to ETVEWALKF, the Kd is 3.2 nM in assay [6] and at most 1 nM in assay [7] (source organism: Kurkino virus).
As to CQWGRLWQL, the IC50 in assay [8] (source organism: Homo sapiens) was 1420 nM.
FCIKVLCPY returned a Kd in [7] (source organism: West Nile virus SPU116/89) of 96 nM.
On to FLDPATTTS, for which the IC50 in assay [9] (setting [42]) is at least 145000 nM; in assay [10] (setting [42]), 1780 nM.
Turning to LSLTKLFSY, the 50% inhibitory concentration (IC50) in assay [9] (source organism: Variola virus) was 3710 nM; in assay [11] it was 18900 nM; in assay [12] (source organism: Variola virus), 4130 nM; in assay [13] (source organism: Variola virus), 15500 nM; in assay [10] (source organism: Variola virus) it was at least 103000 nM.
FTEQAFYTR: the results for the 50% inhibitory concentration (IC50) in assay [9] (setting [43]) and in assay [12] (setting [43]) were 26300 nM and 17700 nM, respectively.
Regarding YLDSGIHSGA, the IC50 in assay [8] (source organism: Homo sapiens) is 83.5 nM.
LLDVPTAAV: the concentration for half-maximal inhibition (IC50) in assay [8] (source organism: Homo sapiens) worked out at 10 nM.
For NLIYRNLHL, the concentration for half-maximal inhibition (IC50) in [8] (source organism: Rhinovirus A) came out at 200 nM.
Consider FIFLKKNEL, for which the dissociation constant Kd in [1] (source organism: Variola virus) worked out at 1440 nM; in [14], 12800 nM; in assay [15], 43.9 nM; in [16], 18500 nM; in [17], 96.6 nM; in assay [18], 4770 nM. This sequence gave a Kd in assay [5] (source organism: Variola virus) of 3020 nM.
As to SSDDIPPRW, the Kd is at least 20000 nM in assay [19]; at least 20000 nM in assay [20]; 27.9 nM in assay [21] (source organism: Camelpox virus CMS); at least 20000 nM in assay [22]; at least 20000 nM in assay [23]; at least 20000 nM in assay [24]. The dissociation constant (Kd) in assay [25], in [26], in assay [27], in assay [28], in assay [29] and in assay [30] was at least 20000 nM throughout. The dissociation constant (Kd) was at least 20000 nM in [31], at least 20000 nM in [32], at least 20000 nM in assay [33] and 1480 nM in assay [34].
In the case of LLGLWGTAAL, the Kd in [35] was 1260 nM; in [36], 1.93 nM; in [37] it was 8190 nM; in assay [38], 7.21 nM. For the same sequence, in assay [8] (source organism: Trypanosoma cruzi), the concentration for half-maximal inhibition (IC50) is 499 nM.
As to VAFYCAGRF, the Kd in [21] (source organism: Mycobacterium tuberculosis variant bovis) amounted to 112 nM; in [1] (source organism: Mycobacterium tuberculosis variant bovis BCG str. Pasteur 1173P2), 58 nM; in assay [39], 450 nM; in assay [40], 748 nM.
On to LLQLNETIY, for which the IC50 in [9] (setting [42]) was at least 88900 nM; in assay [13] (setting [42]) it was 3160 nM; in assay [10] (setting [42]) it was at least 78300 nM.
